Test results: the supplement of paper PMC10567573

B1: LOXL2 (parent)
chain: YVEVKEGKTWKQICDKHWTAKNSR

Variants of: B1
Assay: protein stability index of a GFP-peptide fusion (GPS, HEK-293T) (PSI 1-6); higher = more stable
Conditions: c terminus: a fixed tail appended
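Note: lentivirally expressed fusions sorted by FACS into six bins by GFP to DsRed ratio, PSI derived from sequencing read proportions per bin multiplied by bin number.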

Variant | protein stability index
YVEVKEGKWWKQICDKHWTAKNSR [T9W] | 3.01
YVEVKEGKPWKQICDKHWTAKNSR [T9P] | 2
YVEVKEGKLWKQICDKHWTAKNSR [T9L] | 2.52
YVEVKEGKSWKQICDKHWTAKNSR [T9S] | 2.56
YVEVKEGKCWKQICDKHWTAKNSR [T9C] | 4.04
YVEVKEGKEWKQICDKHWTAKNSR [T9E] | 1.61
YVEVKEGKTWKQECDKHWTAKNSR [I13E] | 2.33
YVEVKEGKTWKQVCDKHWTAKNSR [I13V] | 2.44
YVEVKEGKTWKQQCDKHWTAKNSR [I13Q] | 2.5
YVEVKEGKTWKQRCDKHWTAKNSR [I13R] | 2.59
YVEVKEGKTWKQCCDKHWTAKNSR [I13C] | 2.6
YVEVKEGKTWKLICDKHWTAKNSR [Q12L] | 2.39
YVEVKEGKTWKIICDKHWTAKNSR [Q12I] | 3.16
YVEVKEGKTWKGICDKHWTAKNSR [Q12G] | 2.63
YVEVKEGKTWKYICDKHWTAKNSR [Q12Y] | 2.07
YVEVKEGKTWKQICDKHWTVKNSR [A20V] | 2.11
YVEVKEGKTWKQICDKHWTEKNSR [A20E] | 1.98
YVEVKEGKTWKQICDKHWTCKNSR [A20C] | 2.46
YVEVKEGKTWKQICDKHWTHKNSR [A20H] | 2.07
YVEVKEGKTWKQICDKHWTPKNSR [A20P] | 1.67
YVEVKEGKTWKQICDKHWTSKNSR [A20S] | 2.73
YVEVKEGKTWKQICDKHWTRKNSR [A20R] | 2.71
YVEVKEGKTWKQICDKHWTMKNSR [A20M] | 2.35
YVEVKEGKTWKQICDKHWTGKNSR [A20G] | 1.75

Variant | protein stability index
YVEVKEGTTWKQICDKHWTAKNSR [K8T] | 1.55
YVEVKEGNTWKQICDKHWTAKNSR [K8N] | 1.68
YVEVKEGYTWKQICDKHWTAKNSR [K8Y] | 2.21
YVEVKEGPTWKQICDKHWTAKNSR [K8P] | 2.63
YVEVKEGKTWKQICDKHCTAKNSR [W18C] | 2.54
YVEVKEGKTWKQICDKHPTAKNSR [W18P] | 1.94
YVEVKEHKTWKQICDKHWTAKNSR [G7H] | 1.62
YVEVKEEKTWKQICDKHWTAKNSR [G7E] | 1.7
YVEVKEPKTWKQICDKHWTAKNSR [G7P] | 1.96
YVEVKEMKTWKQICDKHWTAKNSR [G7M] | 1.72
YVEVKETKTWKQICDKHWTAKNSR [G7T] | 1.24
YVEVKEGKTWKQICDKHWTARNSR [K21R] | 3.06
YVEVKEGKTWKQICDKHWTASNSR [K21S] | 1.99
YVEVKEGKTWKQICDKHWTAANSR [K21A] | 2.3
YVEVKEGKTWKQICDKHWTALNSR [K21L] | 1.95
YVEVKEGKTWKQICDKHWTAWNSR [K21W] | 1.96
YVEVKEGKTWKQICDKHWTATNSR [K21T] | 2.5
YVEVKEGKTWKQICDDHWTAKNSR [K16D] | 3.38
YVEVKEGKTWKQICDMHWTAKNSR [K16M] | 2.3
YVEVKEGKTWKQICDVHWTAKNSR [K16V] | 2.46
YVEVKEGKTWKQICDWHWTAKNSR [K16W] | 2.44
YVEVKEGKTWKQICDIHWTAKNSR [K16I] | 2.32
YVEVKEGKTWKQICDPHWTAKNSR [K16P] | 1.95
YVEAKEGKTWKQICDKHWTAKNSR [V4A] | 2.73

Variant | protein stability index
YVEKKEGKTWKQICDKHWTAKNSR [V4K] | 2.03
YVEPKEGKTWKQICDKHWTAKNSR [V4P] | 1.26
YVEVKEGKTWKQICDKHWTAKNLR [S23L] | 2.42
YVEVKEGKTWKQICDKHWTAKNHR [S23H] | 2
YVEVKEGKTRKQICDKHWTAKNSR [W10R] | 2.2
YVEVKEGKTGKQICDKHWTAKNSR [W10G] | 2.23
YVEVKEGKTDKQICDKHWTAKNSR [W10D] | 3.03
LVEVKEGKTWKQICDKHWTAKNSR [Y1L] | 3.34
RVEVKEGKTWKQICDKHWTAKNSR [Y1R] | 3.12
QVEVKEGKTWKQICDKHWTAKNSR [Y1Q] | 3.58
VVEVKEGKTWKQICDKHWTAKNSR [Y1V] | 3.4
FVEVKEGKTWKQICDKHWTAKNSR [Y1F] | 3.57
GVEVKEGKTWKQICDKHWTAKNSR [Y1G] | 3.72
KVEVKEGKTWKQICDKHWTAKNSR [Y1K] | 3.84
YVEVKEGKTWKQICDKHWTAKKSR [N22K] | 3.05
YVEVKEGKTWKQICDKHWTAKFSR [N22F] | 2.29
YVEVKEGKTWKQICDKHWTAKASR [N22A] | 3.24
YVEVKEGKTWKQICDKHWTAKQSR [N22Q] | 1.82
YVEVKEGKTWKQICDKHWTAKCSR [N22C] | 1.97
YVEVKEGKTWKQICDKSWTAKNSR [H17S] | 1.82
YVEVKEGKTWKQICDKCWTAKNSR [H17C] | 1.56
YVEVKEGKTWKQICDKMWTAKNSR [H17M] | 2.41
YVEVKEGKTWKQICDKVWTAKNSR [H17V] | 3.44
YVEVKVGKTWKQICDKHWTAKNSR [E6V] | 3.77

Variant | protein stability index
YVEVKQGKTWKQICDKHWTAKNSR [E6Q] | 4.18
YVEVKYGKTWKQICDKHWTAKNSR [E6Y] | 2.65
YVEVKGGKTWKQICDKHWTAKNSR [E6G] | 3.33
YVEVKKGKTWKQICDKHWTAKNSR [E6K] | 2.89
YVEVKAGKTWKQICDKHWTAKNSR [E6A] | 2.14
YVEVKRGKTWKQICDKHWTAKNSR [E6R] | 1.84
YVEVKMGKTWKQICDKHWTAKNSR [E6M] | 2.88
YVEVKNGKTWKQICDKHWTAKNSR [E6N] | 2.44
YVEVKEGKTWKQICDKHWNAKNSR [T19N] | 2.95
YVEVKEGKTWKQICDKHWEAKNSR [T19E] | 2.15
YVEVKEGKTWKQICDKHWTAKNSE [R24E] | 2.33
YVEVKEGKTWKQICDKHWTAKNSW [R24W] | 1.79
YVEVKEGKTWKQICDKHWTAKNSF [R24F] | 2.94
YVEVKEGKTWKQICDKHWTAKNSA [R24A] | 2.42
YSEVKEGKTWKQICDKHWTAKNSR [V2S] | 2.86
YNEVKEGKTWKQICDKHWTAKNSR [V2N] | 3.69
YYEVKEGKTWKQICDKHWTAKNSR [V2Y] | 2.8
YWEVKEGKTWKQICDKHWTAKNSR [V2W] | 1.98
YLEVKEGKTWKQICDKHWTAKNSR [V2L] | 2.72
YVYVKEGKTWKQICDKHWTAKNSR [E3Y] | 2.73
YVAVKEGKTWKQICDKHWTAKNSR [E3A] | 4.18
YVRVKEGKTWKQICDKHWTAKNSR [E3R] | 1.88
